{"source": "IntAct's records for PubMed 22562154", "parents": {"B1": {"name": "Importin subunit beta-5 (Saccharomyces cerevisiae), P53067 (parent)", "chain": "MDINELIIGAQSADKHTREVAETQLLQWCDSDASQVFKALANVALQHEASLESRQFALLSLRKLITMYWSPGFESYRSTSNVEIDVKDFIREVLLKLCLNDNENTKIKNGASYCIVQISAVDFPDQWPQLLTVIYDAISHQHSLNAMSLLNEIYDDVVSEEMFFEGGIGLATMEIVFKVLNTETSTLIAKIAALKLLKACLLQMSSHNEYDEASRKSFVSQCLATSLQILGQLLTLNFGNVDVISQLKFKSIIYENLVFIKNDFSRKHFSSELQKQFKIMAIQDLENVTHINANVETTESEPLLETVHDCSIYIVEFLTSVCTLQFSVEEMNKIITSLTILCQLSSETREIWTSDFNTFVSKETGLAASYNVRDQANEFFTSLPNPQLSLIFKVVSNDIEHSTCNYSTLESLLYLLQCILLNDDEITGENIDQSLQILIKTLENILVSQEIPELILARAILTIPRVLDKFIDALPDIKPLTSAFLAKSLNLALKSDKELIKSATLIAFTYYCYFAELDSVLGPEVCSETQEKVIRIINQVSSDAEEDTNGALMEVLSQVISYNPKEPHSRKEILQAEFHLVFTISSEDPANVQVVVQSQECLEKLLDNINMDNYKNYIELCLPSFINVLDSNNANNYRYSPLLSLVLEFITVFLKKKPNDGFLPDEINQYLFEPLAKVLAFSTEDETLQLATEAFSYLIFNTDTRAMEPRLMDIMKVLERLLSLEVSDSAAMNVGPLVVAIFTRFSKEIQPLIGRILEAVVVRLIKTQNISTEQNLLSVLCFLTCNDPKQTVDFLSSFQIDNTDALTLVMRKWIEAFEVIRGEKRIKENIVALSNLFFLNDKRLQKVVVNGNLIPYEGDLIITRSMAKKMPDRYVQVPLYTKIIKLFVSELSFQSKQPNPEQLITSDIKQEVVNANKDDDNDDWEDVDDVLDYDKLKEYIDDDVDEEADDDSDDITGLMDVKESVVQLLVRFFKEVASKDVSGFHCIYETLSDSERKVLSEALL"}}, "data": [{"variants_of": "B1", "conditions": "with gsp1_yeast GSP1, P32835", "values": [{"variant": "K909R", "effect of a mutation on the interaction": "decreasing interaction"}]}]}
